{
  "source": "paper PMC12262204",
  "experiment_in_all_cases": "BLI",
  "key": {"[1]": {"target": "T1, Biotin-CGRP(8-37)NH2[N31D/S34P/K35W/A36S] (human)", "T1 sequence (P06881 90-119 with N31D S34P K35W A36S, looked up)": "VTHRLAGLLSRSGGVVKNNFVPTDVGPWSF"}, "[2]": {"target": "T1, Biotin-CGRP(8-37)NH2[N31D/S34P/K35W/A36S] (human)", "remark": "listed apart in the source"}, "[3]": {"target": "biotin-CGRP(8-37)NH2 (human)"}},
  "note": "Like-named read-outs stand apart in the source and are kept apart here.",
  "data": [
    {"substance": "RAMP1.24-111-(GS)5-CLR.29-134-H6 (CLR:RAMP1 ECD fusion protein) (from UniProt O60894 24-111; Q16602 29-134) (receptor)", "values": [
      {"measurement": "residence time", "setting": "[1]", "result": 132, "unit": "s"},
      {"measurement": "half-life", "setting": "[2]", "result": 1.52, "unit": "min"},
      {"measurement": "residence time", "setting": "[2]", "result": 2.18, "unit": "min"},
      {"measurement": "Kd", "setting": "[3]", "result": 52.2, "unit": "µM"},
      {"measurement": "koff", "setting": "[3]", "result": 3.3, "unit": "s⁻¹"},
      {"measurement": "kon", "setting": "[3]", "result": 63300, "unit": "M⁻¹ s⁻¹"}
    ]}
  ]
}
